Reference: patent US10684273B2, “Use of phosphatidylinositol phosphate-binding material for apoptosis detection” (GIL MEDICAL CENTER, priority 2015, dated 2020)
Entries after “also recorded” stand apart in the source; their conditions may differ. Blank lines part the entries; values can stand above or below the molecule they belong to.

How the values were obtained:
[1] = system: Thioglycollate-elicited peritoneal macrophages (Thio-pMacs); experiment: IC-InsP6 absorption by peritoneal macrophages (Prussian blue staining); type: cell-based, C57BL/6 mouse; details: compared to non-activated Thio-pMacs; 0 mM to 0.5 mM, 4 hours; concentration-dependent
Procedure: Thioglycollate-elicited peritoneal macrophages (Thio-pMacs) in a C57BL/6 mouse were obtained. Specifically, 2 mL of 3% Brewer thioglycollate medium (Difco, Detroit, Mich., USA) was intraperitoneally injected the mouse, and 3 to 5 days thereafter, the peritoneum of the mouse was washed with cold PBS to recover peritoneal macrophages. The cells were centrifuged at 1,500 rpm for 5 minutes. The resulting pellet was washed 3 times with PBS, resuspended in DMEM medium containing 10% FBS (Gibco), and cultured on the cover glass in a 6-well plate (Nunc, Fisher Scientific) at a density of 1×10^5 cells/mL. The cells were cultured by adhesion culture, and the slides were washed to remove the suspending cells. Then, the adhered Thio-pMacs cells were cultured according to the presence of LPS (0.5 μg/mL) for 6 hours. LPS induces the activation of Thio-pMacs.
After cultivation, the cells were treated with IC-InsP6 (0 mM to 0.5 mM) for 4 hours. The cells were washed with PBS to remove free IC-InsP6, fixed with formalin (10% neutral buffered) for 5 minutes, and stained as described below for the confirmation of intracellular iron absorption. Specifically, the cover glass was placed in a staining solution (5% potassium ferrocyanide and 12% HCl) for 1 hour, washed 3 times with distilled water, and stained with Prussian blue. […]

[2] = system: RAW264.7 macrophages; experiment: IC-InsP6 absorption by RAW264.7 macrophages; type: cell-based; details: treatment concentration-dependent
[3] = system: liver Kupffer cells; experiment: phagocytosis of IC-InsP6 by liver Kupffer cells after intra-arterial injection; type: in vivo, C57BL/6 mice
[4] = system: PtdIns(3,4,5)P3 externalized on the surface of apoptotic HeLa and CHO cells; experiment: binding of recombinant Akt protein to apoptotic cells (confocal microscopy); type: cell-based; details: through PH domain; 2 μg protein
Procedure: First, HeLa and CHO cells were treated with 4 μM camptothecin for 6 hours to induce apoptosis, fixed with formalin (10% neutral buffered) for 5 minutes, and washed twice with PBS. Then, the cells were treated with the serum-free protein blocking solution (Dako), and cultured along with 2 μg of recombinant Akt proteins (Millipore) for 30 minutes. Then, the HeLa and CHO cells, which were bound to Akt proteins, were treated with rabbit anti-CD14 antibody (HPA00212; 1:200, Sigma-Aldrich USA) or the anti-Akt pleckstrin homology (PH) domain antibody of monoclonal mouse (05-591, 1:100, Millipore) for 30 minutes, and treated with FITC-labeled secondary antibody for 30 minutes. Then, the resultant was counterstained with DAPI to visualize nuclei, and counterstained with propidium iodide to distinguish apoptotic cells.
(§1) Then, the cells were placed on a microscope and photographed by the Zeiss LSM 710 laser-scanning confocal microscope (Carl Zeiss) with appropriate excitation using a release filter set. The images were photographed using 40× oil immersion lens. The fluorescence intensity of the unprocessed original images was quantified using ZEN 2010 software (Carl Zeiss).

[5] = system: apoptotic cells; experiment: flow cytometer analysis of apoptosis; type: cell-based; details: FIG. 14
Procedure: (§2) First, apoptosis was induced in CHO cells by treating them with 4 μM camptothecin for 6 hours, and the cells were fixed with formalin (10% neutral buffered) for 5 minutes and washed twice with PBS. Then, the cells were treated with a serum-free protein blocking solution (DAKO) along with the recombinant PH domain prepared in Example 5-1 for 30 minutes. Then, the cells were treated with the anti-Akt PH domain antibody of monoclonal mouse (05-591, 1:100, Millipore) and then treated with FITC-labeled secondary antibody for 30 minutes. Then, the cells were washed with PBS, fixed with formalin (10% neutral buffered) for 5 minutes, and stained. The cells were counterstained with propidium iodide to distinguish apoptotic cells.
(§3) The recombinant annexin V prepared in Example 5-1 was subjected to an experiment in the same manner and analyzed by FACS.

[6] = system: apoptotic CHO cells; experiment: detection of apoptosis by recombinant PH domain and annexin V (confocal microscopy); type: cell-based; details: 4 μM camptothecin 6 hours
Procedure: as §2, §3, §1

[7] = protein-lipid overlay assay, other lipids on the strip; type: binding; details: mixed with 5 μM CaCl2
Procedure: (§4) To confirm whether the inositol phosphpate groups of various phosphatidylinositol phosphates directly bind to macrophage CD14 receptors, a protein-lipid overlay assay was performed using the full-length recombinant human CD14 proteins and variant CD14 proteins prepared in Example 2-2. PIP strips or PIP arrays were purchased from Echelon Biosciences.
(§5) After culturing a cell membrane for 15 minutes, non-specific bindings to the cell membrane was blocked using TBS-T (50 mM Tris, 0.15 M NaCl, and 0.05% Tween-20, pH 7.4, EDTA-free protease inhibitor cocktail; Roche, Germany) containing 3% BSA. After the blocking, the cell membrane was incubated along with each of the purified recombinant CD14 proteins (100 ρmol) for 30 minutes, washed 3 times with PBS, incubated again with anti-CD14 (rabbit, HPA002127; Sigma-Aldrich), and incubated with horseradish peroxidase (HRP)-labeled secondary antibody (goat; HAF007; R&D Systems) for 30 minutes. The binding was detected using the ImageQuant LAS 4000 (Fujifilm, Japan). As described in Toda et al. (Mol Cell Biol 32, 118, 2012), PIP-affinity bead pulldowns were performed.
To confirm whether the PKCβ1 C2 domain-Myc protein and the inositol phosphpate group in various phosphatidylinositol phosphates directly bind to each other, protein-lipid overlay assay and immunoblotting were performed in the same manner as in Example 2-3. […]

[8] = protein-lipid overlay assay and immunoblotting (PIP strips or PIP arrays); type: binding; details: mixed with 5 μM CaCl2
Procedure: as §4, §5
To confirm whether the PKCβ1 C2 domain-Myc protein and the inositol phosphpate group in various phosphatidylinositol phosphates directly bind to each other, protein-lipid overlay assay and immunoblotting were performed in the same manner as in Example 2-3. The PIP strip or PIP array was purchased from Echelon Biosciences.
Annexin V, which is known to specifically bind to phosphatidylserine, was subjected to protein-lipid overlay assay and immunoblotting in the same manner as in Example 2-3.

Molecule: Iron-Calcium-InsP6 (phytate) [IC-InsP6]
phagocytosis of IC-InsP6 by LPS-activated Thio-pMacs [1]: effective phagocytosis
phagocytosis of IC-InsP6 by RAW264.7 macrophages [2]: effective phagocytosis
phagocytosis of IC-InsP6 by CD14-defective Kupffer cells ([3]; CD14-defective mice, intra-arterial injection): hardly phagocytized
phagocytosis of IC-InsP6 by wild-type Kupffer cells ([3]; wild-type mice): effectively phagocytized

Molecule: recombinant Akt protein: recombinant Akt proteins (Millipore), PH domain-containing protein
binding to PtdIns(3,4,5)P3 externalized on the surface of apoptotic cells [4]: binds; also recorded: can bind

B1: PH domain: human Akt PH domain (1st to 144th amino acids) cloned into pET28a, expressed in E. coli, 21 kDa (protein, UniProt P31749 1-144, looked up, fragment)
chain: MSDVAIVKEGWLHKRGEYIKTWRPRYFLLKNDGTFIGYKERPQDVDQREAPLNNFSVAQCQLMKTERPRPNTFIIRCLQWTTVIERTFHVETPEEREEWTTAIQTVADGLKKQEEEEMDFRSGSPSDNSGAEEMEVSLAKPKHR
modifications: PH domain
notes: human Akt PH domain (1st to 144th amino acids) cloned into pET28a, expressed in E. coli, 21 kDa
detection in apoptotic cells by flow cytometer [5]: appeared
binding on the surfaces of apoptotic cells / detection of apoptosis ([6]; FIG. 13): bind at different locations from each other
binding on the surfaces of apoptotic cells / detection of apoptosis ([6]; FIG. 13, listed as recombinant PH domain): can detect apoptosis

binding to phosphatidylserine [7]: did not bind
binding to PI(3,5)P2, PI(4,5)P2, and PI(3,4,5)P3 [8]: strongest bindings
binding to PI(5)P, PI(3)P, PI(4)P and PI(3,4)P2 [8]: also shown to bind
binding to various kinds of phosphatidylinositol phosphates ([8]; 100 ρmol): shown to bind
B2: annexin V: human annexin V (1st to 319th amino acids) cloned into pET28a, expressed in E. coli, 37 kDa (protein, UniProt P08758 1-319, looked up, fragment)
chain: MAQVLRGTVTDFPGFDERADAETLRKAMKGLGTDEESILTLLTSRSNAQRQEISAAFKTLFGRDLLDDLKSELTGKFEKLIVALMKPSRLYDAYELKHALKGAGTNEKVLTEIIASRTPEELRAIKQVYEEEYGSSLEDDVVGDTSGYYQRMLVVLLQANRDPDAGIDEAQVEQDAQALFQAGELKWGTDEEKFITIFGTRSVSHLRKVFDKYMTISGFQIEETIDRETSGNLEQLLLAVVKSIRSIPAYLAETLYYAMKGAGTDDHTLIRVMVSRSEIDLFNIRKEFRKNFATSLYSMIKGDTSGDYKKALLLLCGED
detection in apoptotic cells by flow cytometer [5]: simultaneously detected
binding on the surfaces of apoptotic cells / detection of apoptosis ([6]; FIG. 13): bind at different locations from each other
